Target: RAB21 (UniProt P35282)
Test: GST pull-down with purified proteins
Conditions: reference: RPH3A incubated with PKN1 without ATP; sites S234,S271

binding against the reference: stronger
Substance: RPH3A (Rabphilin 3A) (from UniProt P47708) RPH3A incubated with PKN1 and ATP

— paper PMC5548392
